Test results as given in patent US11421006B2, “T cell epitopes from Cockroach and methods of making and using same” (LA JOLLA INSTITUTE FOR ALLERGY AND IMMUNOLOGY, priority 2012, dated 2022).
“Also recorded” adds a separate entry of the source.

B1: Bla g 1: German Cockroach (Blattella germanica) allergen Bla g 1 (protein, listed as Blattella germanica)
chain: NAIEFLNNIHDLLGIPHIPVTARKHHRRGVGITGLIDDIIAILPVDDLYALFQEKLETSPEFKALYDAIRSPEFQSIVGTLEAMPEYQNLIQKLKDKGVDVDHIIELIHQIFNIVRDTRGLPEDLQDFLALIPTDQVLAIAADYLANDAEVKAAVEYLKSDEFETIVVTVDSLPEFKNFLNFLQTNGLNAIEFLNNIHDLLGIPHIPVTGRKHLRRGVGITGLIDDIIAILPVDDLYALFQEKLETSPEFKALYDAIRSPEFQSIVETLKAMPEYQSLIQKLKDKGVDVDHIIELIHQIFNIVRDTRGLPEDLQDFLALIPIDQILAIAADYLANDAEVQAAVEYLKSDEFETIVVTVDSLPEFKNFLNFLQTNGLNAIEFINNIHDLLGIPHIPATGRKHVRRGVGINGLIDDVIAILPVDELYALFQEKLESSPEFKALYDAIRSPEFQSIVQTLKAMPEYQDLIQRLKDKGVDVDHFIELIKKLFGLSH
B2: Bla g 2: German Cockroach allergen Bla g 2 (protein, listed as Blattella germanica)
chain: MIGLKLVTVLFAVATITHAAELQRVPLYKLVHVFINTQYAGITKIGNQNFLTVFDSTSCNVVVASQECVGGACVCPNLQKYEKLKPKYISDGNVQVKFFDTGSAVGRGIEDSLTISNLTTSQQDIVLADELSQEVCILSADVVVGIAAPGCPNALKGKTVLENFVEENLIAPVFSIHHARFQDGEHFGEIIFGGSDWKYVDGEFTYVPLVGDDSWKFRLDGVKIGDTTVAPAGTQAIIDTSKAIIVGPKAYVNPINEAIGCVVEKTTTRRICKLDCSKIPSLPDVTFVINGRNFNISSQYYIQQNGNLCYSGFQPCGHSDHFFIGDFFVDHYYSEFNWENKTMGFGRSVESV
B3: Bla g 4: German Cockroach allergen Bla g 4 (protein, listed as Blattella germanica)
chain: AVLALCATDTLANEDCFRHESLVPNLDYERFRGSWIIAAGTSEALTQYKCWIDRFSYDDALVSKYTDSQGKNRTTIRGRTKFEGNKFTIDYNDKGKAFSAPYSVLATDYENYAIVEGCPAAANGHVIYVQIRFSVRRFHPKLGDKEMIQHYTLDQVNQHKKAIEEDLKHFNLKYEDLHSTCH
B4: Bla g 7: German Cockroach allergen Bla g 7 (protein, listed as Blattella germanica)
chain: MDAIKKKMQAMKLEKDNAMDRALLCEQQARDANIRAEKAEEEARSLQKKIQQIENDLDQTMEQLMQVNAKLDEKDKALQNAESEVAALNRRIQLLEEDLERSEERLATATAKLAEASQAADESERARKILESKGLADEERMDALENQLKEARFMAEEADKKYDEVARKLAMVEADLERAEERAETGESKIVELEEELRVVGNNLKSLEVSEEKANLREEEYKQQIKTLNTRLKEAEARAEFAERSVQKLQKEVDRLEDELVHEKEKYKYICDDLDMTFTELIGN
B5: Bla g 6: German Cockroach allergen Bla g 6 (protein, listed as Blattella germanica)
chain: MADEQLQLPPEQISVLRKAFDAFDREKSGSISTNMVEEILRLMGQPFNRRTLEELIDEVDADKSGRLEFDEFVTLAAKFIIEEDSEAMEKELREAFRLYDKEGNGYIPTSCLREILRELDEQLTSDELDMMIEEIDADGSGTVDFDEFMEMMTG
B6: Bla g 5: German Cockroach allergen Bla g 5 (protein, listed as Blattella germanica)
chain: MAPSYKLTYCPVKALGEPIRFLLSYGEKDFEDYRFQEGDWPNLKPSMPFGKTPVLEIDGKQTHQSVAISRYLGKQFGLSGKDDWENLEIDMIVDTISDFRAAIANYHYDADENSKQKKWDPLKKETIPYYTKKFDEVVKANGGYLAAGKLTWADFYFVAILDYLNHMAKEDLVANQPNLKALREKVLGLPAIKAWVAKRPPTDL

Legend:
[1] = tested on: Bla g-specific T cells (PBMC); test: ELISPOT assays: IL-5, IFN-γ and IL-10 production by in vitro expanded PBMC of Cockroach-allergic donors; type: cell-based, human; settings: for Donors responding (%), T cell / Donors responding, T cell (number): 34 donors; for IFN-γ SFC / IL-5 SFC / Total SFC: all peptides of the protein; for Total SFC: IL-5 plus IFN-γ; for Ratio IL-5/IFNγ: per protein; for % Total Response: share of total Bla g response per protein; for share of the response accounted for by the allergen: discussion, PBMC responses from 30 allergic donors
Description: In vitro expansion of Bla g-specific T cells: PBMC were cultured in RPMI 1640 (V Scientific, Tarzana, Calif.) supplemented with 5% human serum (Cellgro, Herndon, Va.) at a density of 2×10^6 cells/ml in 24-well plates (BD Biosciences, San Jose, Calif.) and stimulated with 25 μg/ml German Cockroach (Blatella germanica; Bla g) extract (Greer, Lenoir, N.C.), or individual peptides. […] On day 14, cells were harvested and screened for reactivity against Bla g-specific peptide pools or individual peptides. ELISPOT assays: The production of IL-5, IFN-γ, and IL-10 was analyzed in ELISPOT assays. […] Cells were then incubated at a density of 1×10^5/well either with peptide pools or individual peptides (10 μg/ml), German Cockroach extract (25 μg/ml), PHA (10 μg/ml), or medium (containing 1% DMSO corresponding to the percentage of DMSO in the pools/peptides) as a control. […] Louis, Mo.). Spots were counted by computer-assisted image analysis (Zeiss, KS-ELISPOT reader, Munich, Germany). Each assay was performed in triplicate. The level of statistical significance was determined with a Student's t-test using the mean of triplicate values of the response against relevant pools or individual peptides versus the response against the DMSO control.

[2] = tested on: specific IgE antibody in donor sera; test: Serological determinations: specific IgE antibody binding by (streptavidin-)ImmunoCAP; set-up: species or system human; settings: 34 donors
Description: Serological determinations: Sera were analyzed for specific IgE antibody binding to rBla g 1, rBla g 2, rBla g 4, rBla g 5 and rPer a 7 using allergen-coated streptavidin-ImmunoCAPs. Recombinant allergens were expressed in Pichia pastoris (rBla g 1, rBla g 2, rBla g 4, rPer a 7) or Escherichia coli (rBla g 5) and purified by affinity chromatography. Purified allergens were biotinylated and bound to streptavidin-coated ImmunoCAPs (Phadia US Inc., Portage, Mich.) at an optimized amount of 1 μg per ImmunoCAP. Specific IgE antibody binding to extracts from Blattella germanica (i6), Dermatophagoides pteronyssinus (d1) and D. farinae (d2), and total IgE antibody were also measured by ImmunoCAP analysis.

[3] = Correlation between IgE and T cell responses per donor; set-up: species or system human; settings: for Donors with Responses to: Both: IgE and T cell
Text: The correlation between T cell responses and IgE responses was further investigated by examining for each donor which allergens were recognized by IgE and T cell responses (Table V and Table IX).

Row | Molecule | Donors responding (%), T cell [1] | Donors responding, T cell (number) [1] | IFN-γ SFC [1] | IL-5 SFC [1] | Total SFC [1] | Ratio IL-5/IFNγ [1] | % Total Response [1] | Donors responding (%), IgE [2] | Donors responding, IgE (number) [2] | Donors with Responses to: IgE Only [3] | Donors with Responses to: Neither [3] | Donors with Responses to: T Cell Only [3] | Donors with Responses to: Both [3] | T cell response pattern (IL-5 / IFN-γ), in words [1] | share of the response accounted for by the allergen [1] | donors with a strong Th1 bias (ratio >5-fold) ([1]; of the 11 donors responding) | donors with a strong Th2 bias ([1]; of the 11 donors responding) | donors with balanced responses ([1]; of the 11 donors responding)
1 | B1 | 12% | 4 | 890 SFC | 1083 SFC | 1973 SFC | 1.22 | 8.1% | 12% | 4 | 3 | 27 | 3 | 1 | – | – | – | – | –
2 | B2 | 9% | 3 | 1553 SFC | 0 SFC | 1553 SFC | <0.01 | 6.4% | 24% | 8 | 7 | 24 | 2 | 1 | Little or no response; also recorded: responses were detected only for IFN-γ, and not for IL-5 | – | – | – | –
3 | B3 | 0 (0) % | 0 (0) | 0 SFC | 0 SFC | 0 SFC | – | 0.0% | 12% | 4 | 4 | 30 | 0 | 0 | Little or no response | – | – | – | –
4 | B4 | – | – | 0 SFC | 0 SFC | 0 SFC | – | 0.0% | – | – | 4 | 30 | 0 | 0 | Little or no response | – | – | – | –
5 | B5 | 17% | 5 | 310 SFC | 4045 SFC | 4355 SFC | 13.0 | 17.9% | – | – | – | – | – | – | clear preponderance of IL-5 | 20% | – | – | –
6 | B6 | 32% | 11 | 6875 SFC | 9637 SFC | 16512 SFC | 1.40 | 67.7% | 44% | 15 | 8 | 15 | 4 | 7 | both IL-5 and IFN-γ responses were detected | 65% | 3 | 3 | 5
